Reference: US20250262210A1 (TRUSTEES OF COLUMBIA UNIVERSITY IN THE CITY OF NEW YORK, published 2025)

Legend:
Assay in all cases: IP/MS, LZTR1 R810W-FLAG, U87
SKIV2L = SKIV2L (human, UniProt Q15477 1-1246)
How it was run: (§1)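 Read-out: spectral counts from LC-MS/MS (Orbitrap Fusion) after MaxQuant identification. Variable modifications were Met oxidation, protein N-terminal acetylation and N/Q deamidation.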

ALPK2 = ALPK2 (human, UniProt Q86TB3 1-2170)
How it was run: as §1

RNF123 = target: T1, RNF123 (human, UniProt Q5XPI4 2-1314, limits assumed)
T1 sequence (looked up): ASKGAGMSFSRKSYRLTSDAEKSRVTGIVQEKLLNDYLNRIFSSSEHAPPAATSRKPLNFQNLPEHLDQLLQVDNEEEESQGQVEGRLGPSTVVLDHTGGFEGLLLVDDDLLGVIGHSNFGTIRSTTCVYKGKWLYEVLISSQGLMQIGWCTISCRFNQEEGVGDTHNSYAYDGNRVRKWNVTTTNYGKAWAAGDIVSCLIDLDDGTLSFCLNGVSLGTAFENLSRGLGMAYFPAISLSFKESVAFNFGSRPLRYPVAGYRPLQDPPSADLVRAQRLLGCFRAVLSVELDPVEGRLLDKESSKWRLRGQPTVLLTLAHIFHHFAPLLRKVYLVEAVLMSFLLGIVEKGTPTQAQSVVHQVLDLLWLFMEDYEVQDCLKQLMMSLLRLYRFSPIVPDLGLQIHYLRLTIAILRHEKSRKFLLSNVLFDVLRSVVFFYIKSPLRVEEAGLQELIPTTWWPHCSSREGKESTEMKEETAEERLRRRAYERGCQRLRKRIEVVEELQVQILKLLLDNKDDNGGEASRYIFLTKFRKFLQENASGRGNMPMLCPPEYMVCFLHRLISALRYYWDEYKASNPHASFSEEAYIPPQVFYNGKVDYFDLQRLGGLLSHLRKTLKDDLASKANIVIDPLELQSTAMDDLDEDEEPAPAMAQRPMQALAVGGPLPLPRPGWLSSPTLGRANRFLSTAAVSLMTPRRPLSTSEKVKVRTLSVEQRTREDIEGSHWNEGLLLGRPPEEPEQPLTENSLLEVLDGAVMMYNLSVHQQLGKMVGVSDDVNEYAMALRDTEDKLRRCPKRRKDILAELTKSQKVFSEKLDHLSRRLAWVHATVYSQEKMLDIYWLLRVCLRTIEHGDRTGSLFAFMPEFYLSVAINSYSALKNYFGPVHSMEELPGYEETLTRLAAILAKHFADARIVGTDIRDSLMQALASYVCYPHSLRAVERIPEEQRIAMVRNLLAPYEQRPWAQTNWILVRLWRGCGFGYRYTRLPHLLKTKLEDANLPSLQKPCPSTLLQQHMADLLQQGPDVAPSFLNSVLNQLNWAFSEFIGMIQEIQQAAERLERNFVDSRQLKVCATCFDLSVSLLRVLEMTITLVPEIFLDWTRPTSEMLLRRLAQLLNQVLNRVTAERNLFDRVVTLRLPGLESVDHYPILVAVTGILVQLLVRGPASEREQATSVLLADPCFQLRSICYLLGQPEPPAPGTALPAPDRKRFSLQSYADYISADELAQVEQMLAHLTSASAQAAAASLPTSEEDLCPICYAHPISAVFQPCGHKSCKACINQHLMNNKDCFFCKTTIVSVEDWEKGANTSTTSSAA
How it was run: as §1

Measured: binding result

Sequence of SKIV2L (Q15477 whole entry, the tested form may be a part): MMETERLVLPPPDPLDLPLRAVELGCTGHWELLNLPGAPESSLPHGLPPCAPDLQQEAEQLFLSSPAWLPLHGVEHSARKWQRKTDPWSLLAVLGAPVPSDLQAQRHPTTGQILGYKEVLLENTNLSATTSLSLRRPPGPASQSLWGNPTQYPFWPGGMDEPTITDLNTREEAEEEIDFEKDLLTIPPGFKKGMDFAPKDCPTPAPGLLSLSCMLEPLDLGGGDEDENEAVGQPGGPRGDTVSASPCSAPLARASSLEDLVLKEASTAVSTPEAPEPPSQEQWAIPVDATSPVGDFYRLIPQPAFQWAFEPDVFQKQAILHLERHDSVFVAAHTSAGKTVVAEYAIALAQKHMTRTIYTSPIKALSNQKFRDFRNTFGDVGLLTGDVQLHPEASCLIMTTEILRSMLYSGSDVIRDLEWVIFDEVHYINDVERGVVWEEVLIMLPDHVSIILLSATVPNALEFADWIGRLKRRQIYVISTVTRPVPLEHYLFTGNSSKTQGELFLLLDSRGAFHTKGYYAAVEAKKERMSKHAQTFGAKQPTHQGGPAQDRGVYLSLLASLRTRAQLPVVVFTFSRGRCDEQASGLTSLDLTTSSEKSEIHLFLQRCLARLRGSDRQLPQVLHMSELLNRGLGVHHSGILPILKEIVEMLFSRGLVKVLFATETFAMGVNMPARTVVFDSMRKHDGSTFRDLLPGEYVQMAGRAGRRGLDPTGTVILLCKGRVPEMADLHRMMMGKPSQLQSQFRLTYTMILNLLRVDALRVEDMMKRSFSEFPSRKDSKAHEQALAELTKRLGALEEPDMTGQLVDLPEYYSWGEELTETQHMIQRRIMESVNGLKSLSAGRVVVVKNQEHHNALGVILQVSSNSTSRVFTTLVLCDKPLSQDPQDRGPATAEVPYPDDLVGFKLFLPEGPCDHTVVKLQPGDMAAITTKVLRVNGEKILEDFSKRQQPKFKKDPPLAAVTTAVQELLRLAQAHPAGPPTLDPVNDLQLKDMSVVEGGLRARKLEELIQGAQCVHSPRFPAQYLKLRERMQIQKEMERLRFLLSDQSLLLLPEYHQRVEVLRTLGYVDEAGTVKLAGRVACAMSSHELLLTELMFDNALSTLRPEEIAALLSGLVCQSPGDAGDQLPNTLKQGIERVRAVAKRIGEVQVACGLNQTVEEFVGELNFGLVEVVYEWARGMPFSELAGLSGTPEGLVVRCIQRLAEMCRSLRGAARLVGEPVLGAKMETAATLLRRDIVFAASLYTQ
Sequence of ALPK2 (Q86TB3 whole entry): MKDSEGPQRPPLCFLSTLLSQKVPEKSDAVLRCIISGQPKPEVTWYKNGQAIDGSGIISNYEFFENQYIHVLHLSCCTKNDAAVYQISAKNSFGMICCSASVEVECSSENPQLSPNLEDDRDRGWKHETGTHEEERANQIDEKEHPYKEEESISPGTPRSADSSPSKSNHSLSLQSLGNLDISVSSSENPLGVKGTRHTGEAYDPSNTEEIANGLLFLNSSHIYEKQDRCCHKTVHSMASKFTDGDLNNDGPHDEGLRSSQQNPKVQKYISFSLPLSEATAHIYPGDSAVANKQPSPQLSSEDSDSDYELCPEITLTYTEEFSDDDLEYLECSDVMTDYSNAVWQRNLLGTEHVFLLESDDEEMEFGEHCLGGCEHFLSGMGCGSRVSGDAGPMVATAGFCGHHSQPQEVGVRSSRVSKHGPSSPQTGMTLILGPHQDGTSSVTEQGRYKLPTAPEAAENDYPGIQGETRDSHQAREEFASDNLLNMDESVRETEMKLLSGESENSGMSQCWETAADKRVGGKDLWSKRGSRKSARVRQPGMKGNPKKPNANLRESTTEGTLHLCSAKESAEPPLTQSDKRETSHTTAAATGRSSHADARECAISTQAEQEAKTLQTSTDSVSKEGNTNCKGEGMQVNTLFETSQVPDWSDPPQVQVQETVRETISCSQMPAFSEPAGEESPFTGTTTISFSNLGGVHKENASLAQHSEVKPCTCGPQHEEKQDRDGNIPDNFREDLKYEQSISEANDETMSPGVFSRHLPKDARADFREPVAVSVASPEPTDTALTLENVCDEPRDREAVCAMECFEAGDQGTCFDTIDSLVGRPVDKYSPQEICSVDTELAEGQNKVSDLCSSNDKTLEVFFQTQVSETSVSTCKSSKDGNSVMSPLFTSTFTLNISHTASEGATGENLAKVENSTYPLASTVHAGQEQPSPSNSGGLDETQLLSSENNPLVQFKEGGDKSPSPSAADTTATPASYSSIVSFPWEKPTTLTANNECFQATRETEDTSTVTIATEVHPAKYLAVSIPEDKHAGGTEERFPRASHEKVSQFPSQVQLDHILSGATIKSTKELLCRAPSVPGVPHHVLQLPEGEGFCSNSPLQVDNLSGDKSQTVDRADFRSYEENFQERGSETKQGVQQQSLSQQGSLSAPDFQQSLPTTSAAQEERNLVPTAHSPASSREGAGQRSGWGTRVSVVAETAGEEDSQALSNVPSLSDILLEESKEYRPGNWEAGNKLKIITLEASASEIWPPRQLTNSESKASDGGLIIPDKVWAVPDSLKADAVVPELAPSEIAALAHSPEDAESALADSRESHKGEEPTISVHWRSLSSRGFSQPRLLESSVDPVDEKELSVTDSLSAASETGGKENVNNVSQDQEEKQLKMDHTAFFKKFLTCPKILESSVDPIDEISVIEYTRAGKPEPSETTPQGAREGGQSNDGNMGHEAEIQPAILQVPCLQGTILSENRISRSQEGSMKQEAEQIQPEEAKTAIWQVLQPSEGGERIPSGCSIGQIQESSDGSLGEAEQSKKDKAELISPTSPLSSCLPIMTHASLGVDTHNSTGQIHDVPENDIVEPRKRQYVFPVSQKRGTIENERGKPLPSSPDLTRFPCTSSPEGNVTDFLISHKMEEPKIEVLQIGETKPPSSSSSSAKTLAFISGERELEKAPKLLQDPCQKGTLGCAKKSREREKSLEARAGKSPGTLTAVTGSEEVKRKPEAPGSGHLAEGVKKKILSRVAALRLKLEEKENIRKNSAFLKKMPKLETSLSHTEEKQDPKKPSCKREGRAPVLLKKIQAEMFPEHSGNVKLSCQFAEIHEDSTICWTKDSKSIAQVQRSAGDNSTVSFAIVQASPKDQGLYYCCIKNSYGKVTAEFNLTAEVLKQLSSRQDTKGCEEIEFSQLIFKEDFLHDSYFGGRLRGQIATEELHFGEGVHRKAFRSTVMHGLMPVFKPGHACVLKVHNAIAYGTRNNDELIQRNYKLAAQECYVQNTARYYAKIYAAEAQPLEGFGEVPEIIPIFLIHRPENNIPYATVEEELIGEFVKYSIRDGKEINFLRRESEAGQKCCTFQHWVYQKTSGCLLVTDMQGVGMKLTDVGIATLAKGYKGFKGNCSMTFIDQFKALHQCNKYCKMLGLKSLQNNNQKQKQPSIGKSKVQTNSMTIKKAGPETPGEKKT

B1: LZTR1 R810W-FLAG (other, human, UniProt Q8N653 1-840, looked up)
chain: MAGPGSTGGQIGAAALAGGARSKVAPSVDFDHSCSDSVEYLTLNFGPFETVHRWRRLPPCDEFVGARRSKHTVVAYKDAIYVFGGDNGKTMLNDLLRFDVKDCSWCRAFTTGTPPAPRYHHSAVVYGSSMFVFGGYTGDIYSNSNLKNKNDLFEYKFATGQWTEWKIEGRLPVARSAHGATVYSDKLWIFAGYDGNARLNDMWTIGLQDRELTCWEEVAQSGEIPPSCCNFPVAVCRDKMFVFSGQSGAKITNNLFQFEFKDKTWTRIPTEHLLRGSPPPPQRRYGHTMVAFDRHLYVFGGAADNTLPNELHCYDVDFQTWEVVQPSSDSEVGGAEVPERACASEEVPTLTYEERVGFKKSRDVFGLDFGTTSAKQPTQPASELPSGRLFHAAAVISDAMYIFGGTVDNNIRSGEMYRFQFSCYPKCTLHEDYGRLWESRQFCDVEFVLGEKEECVQGHVAIVTARSRWLRRKITQARERLAQKLEQEAAPVPREAPGVAAGGARPPLLHVAIREAEARPFEVLMQFLYTDKIKYPRKGHVEDVLLIMDVYKLALSFQLCRLEQLCRQYIEASVDLQNVLVVCESAARLQLSQLKEHCLNFVVKESHFNQVIMMKEFERLSSPLIVEIVRRKQQPPPRTPLDQPVDIGTSLIQDMKAYLEGAGAEFCDITLLLDGHPRPAHKAILAARSSYFEAMFRSFMPEDGQVNISIGEMVPSRQAFESMLRYIYYGEVNMPPEDSLYLFAAPYYYGFYNNRLQAYCKQNLEMNVTVQNVLQILEAADKTQALDMKRHCLHIIVHQFTKVSKLPTLWSLSQQLLLDIIDSLASHISDKQCAELGADI
notes: Stably expressed in U87 cells by lentivirus; also called LZTR1-FLAG-R810W; LZTR1 RW; not shown: FLAG tag
binds: all assays above
